Consider 4 molecules from patent US20090005298A1 (published 2009).

As usually defined, the Kd is the free concentration of one partner at which half of the binding sites on the other are occupied at equilibrium, for simple one-to-one binding. Read a low Kd as higher affinity.

In assay [1] the target is T1, Rat tail tendon type I collagen (rat, UniProt P02454 152-1207; P02466 86-1125). The assay is described as follows: solid-phase collagen-binding assay, anti-His detection, one-site binding model.
Assay [2] concerns the target T1, Rat tail tendon type I collagen. The assay is described as follows: cell-based or functional assay.

T1 sequence (P02454 152-1207 limits assumed, chain 1 of 2): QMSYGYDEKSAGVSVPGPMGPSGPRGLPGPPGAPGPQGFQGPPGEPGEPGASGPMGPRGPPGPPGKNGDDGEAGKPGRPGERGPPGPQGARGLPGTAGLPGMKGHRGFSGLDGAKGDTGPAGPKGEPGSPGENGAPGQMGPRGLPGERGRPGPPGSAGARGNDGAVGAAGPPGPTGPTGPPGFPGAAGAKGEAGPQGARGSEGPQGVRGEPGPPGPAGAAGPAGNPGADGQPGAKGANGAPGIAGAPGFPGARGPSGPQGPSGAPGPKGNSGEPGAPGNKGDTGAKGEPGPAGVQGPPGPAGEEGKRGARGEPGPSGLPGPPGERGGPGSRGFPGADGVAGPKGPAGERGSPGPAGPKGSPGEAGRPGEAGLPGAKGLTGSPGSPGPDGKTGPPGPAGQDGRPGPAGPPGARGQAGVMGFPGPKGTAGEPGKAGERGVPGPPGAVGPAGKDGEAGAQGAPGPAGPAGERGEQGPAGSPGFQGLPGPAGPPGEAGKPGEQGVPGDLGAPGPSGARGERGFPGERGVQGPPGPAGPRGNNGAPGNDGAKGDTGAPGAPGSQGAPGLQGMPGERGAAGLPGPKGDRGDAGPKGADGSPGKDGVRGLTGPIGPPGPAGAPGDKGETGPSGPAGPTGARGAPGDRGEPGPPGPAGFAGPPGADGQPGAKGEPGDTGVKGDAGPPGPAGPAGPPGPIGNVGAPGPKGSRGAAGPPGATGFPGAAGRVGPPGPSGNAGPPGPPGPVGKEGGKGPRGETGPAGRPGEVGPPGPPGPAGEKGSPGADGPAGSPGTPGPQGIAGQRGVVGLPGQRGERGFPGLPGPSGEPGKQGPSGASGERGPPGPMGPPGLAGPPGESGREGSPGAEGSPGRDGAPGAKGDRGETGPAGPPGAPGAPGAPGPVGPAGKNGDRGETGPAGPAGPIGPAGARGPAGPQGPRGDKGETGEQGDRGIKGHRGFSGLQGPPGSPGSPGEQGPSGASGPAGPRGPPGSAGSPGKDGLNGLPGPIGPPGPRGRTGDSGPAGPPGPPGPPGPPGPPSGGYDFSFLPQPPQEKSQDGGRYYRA
T1 sequence (P02466 86-1125 limits assumed, chain 2 of 2): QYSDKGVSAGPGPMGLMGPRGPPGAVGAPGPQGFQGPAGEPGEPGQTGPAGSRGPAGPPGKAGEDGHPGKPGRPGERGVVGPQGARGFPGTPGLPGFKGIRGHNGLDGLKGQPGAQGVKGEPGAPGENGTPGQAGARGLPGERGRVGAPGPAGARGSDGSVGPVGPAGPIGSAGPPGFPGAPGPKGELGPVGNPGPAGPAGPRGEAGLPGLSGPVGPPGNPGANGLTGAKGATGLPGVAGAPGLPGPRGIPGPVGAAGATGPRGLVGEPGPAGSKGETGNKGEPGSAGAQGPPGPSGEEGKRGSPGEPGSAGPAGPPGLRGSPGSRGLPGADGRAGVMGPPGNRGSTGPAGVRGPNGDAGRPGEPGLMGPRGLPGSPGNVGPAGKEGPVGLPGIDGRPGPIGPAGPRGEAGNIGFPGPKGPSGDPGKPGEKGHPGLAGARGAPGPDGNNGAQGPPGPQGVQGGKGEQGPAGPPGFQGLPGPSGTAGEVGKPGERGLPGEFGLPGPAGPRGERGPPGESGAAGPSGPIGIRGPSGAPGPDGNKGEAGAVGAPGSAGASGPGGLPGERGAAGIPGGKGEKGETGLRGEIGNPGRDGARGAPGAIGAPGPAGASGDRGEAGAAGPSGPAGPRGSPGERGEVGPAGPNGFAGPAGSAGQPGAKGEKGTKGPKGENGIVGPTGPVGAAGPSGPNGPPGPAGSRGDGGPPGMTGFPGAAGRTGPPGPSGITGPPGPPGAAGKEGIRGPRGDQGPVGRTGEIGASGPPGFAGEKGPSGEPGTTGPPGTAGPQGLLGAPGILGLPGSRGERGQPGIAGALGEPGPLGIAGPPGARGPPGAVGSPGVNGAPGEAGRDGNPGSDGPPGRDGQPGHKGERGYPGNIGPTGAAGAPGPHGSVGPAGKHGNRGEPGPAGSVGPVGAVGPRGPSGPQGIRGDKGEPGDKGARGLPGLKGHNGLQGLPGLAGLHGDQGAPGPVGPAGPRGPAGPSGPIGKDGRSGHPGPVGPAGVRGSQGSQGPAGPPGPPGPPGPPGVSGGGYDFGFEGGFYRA

In assay [1], “rBSP(1-75) (from UniProt P13839 1-75) (peptide)” had an equilibrium dissociation constant (Kd) of 4.04 nM.
In the case of “rBSP(1-100) (from UniProt P13839 1-100) (peptide)”, the Kd in assay [1] was determined as 5.64 nM.
The same measure, in the same setting: for “rBSP(19-100) (from UniProt P13839 19-100) (peptide)” the value was 50.3 nM.

B1: Rat recombinant BSP (rBSP) (other)
chain: FSMKNFHRRIKAEDSEENGVFKYRPRYFLYKHATYFYPPLKRFPVQGGSDSSEENGDGDSSEEEGEEEETSNEEENNEDSEGNEDQEAEAENATLSGVTASYGVETTADAGKLELAALQLPKKAGDAEGKAPKMKESDEEEEEEEEEENENEEAEVDENEQVVNGTSTNSTEVDGGNGPSGGDNGEEAEEASVTEAGAEGTTAGVRELTSYGTTTAVLLNGFQQTTPPPEAYGTTSPPARKSSTVEYGEEYEQIGNEYNTAYETYDENNGEPRGDTYRAYEDEYSYYKGHGYEGYEGQDYYYHQ
modifications: biotinylated with Sulfo-NHS-Biotin where used as the labelled protein in competition assays
Turning to B1, in assay [2], the “nucleating activity of rBSP in a collagen scaffold (hydroxyapatite nucleation)” value came to 0.025 nmol. Moreover, in assay [1], binding was put at a Kd of 22.9 nM.
